The values below come from US20210220450A1, “TREATMENT OF AN IOP CONDITION” (The Research Foundation for The State University of New York, priority 2013, published 2021).

The target of experiment [1] is low-density-lipoprotein receptor-related protein 1 (LRP-1) (UniProt Q07954). The experiment in a line: cell-based or functional assay.
In experiment [2] the target is N-methyl-D-aspartate receptor (NMDAR). Briefly: cell-based or functional assay.

UniProt Q07954, sequence (Q07954 20-4544 limits assumed): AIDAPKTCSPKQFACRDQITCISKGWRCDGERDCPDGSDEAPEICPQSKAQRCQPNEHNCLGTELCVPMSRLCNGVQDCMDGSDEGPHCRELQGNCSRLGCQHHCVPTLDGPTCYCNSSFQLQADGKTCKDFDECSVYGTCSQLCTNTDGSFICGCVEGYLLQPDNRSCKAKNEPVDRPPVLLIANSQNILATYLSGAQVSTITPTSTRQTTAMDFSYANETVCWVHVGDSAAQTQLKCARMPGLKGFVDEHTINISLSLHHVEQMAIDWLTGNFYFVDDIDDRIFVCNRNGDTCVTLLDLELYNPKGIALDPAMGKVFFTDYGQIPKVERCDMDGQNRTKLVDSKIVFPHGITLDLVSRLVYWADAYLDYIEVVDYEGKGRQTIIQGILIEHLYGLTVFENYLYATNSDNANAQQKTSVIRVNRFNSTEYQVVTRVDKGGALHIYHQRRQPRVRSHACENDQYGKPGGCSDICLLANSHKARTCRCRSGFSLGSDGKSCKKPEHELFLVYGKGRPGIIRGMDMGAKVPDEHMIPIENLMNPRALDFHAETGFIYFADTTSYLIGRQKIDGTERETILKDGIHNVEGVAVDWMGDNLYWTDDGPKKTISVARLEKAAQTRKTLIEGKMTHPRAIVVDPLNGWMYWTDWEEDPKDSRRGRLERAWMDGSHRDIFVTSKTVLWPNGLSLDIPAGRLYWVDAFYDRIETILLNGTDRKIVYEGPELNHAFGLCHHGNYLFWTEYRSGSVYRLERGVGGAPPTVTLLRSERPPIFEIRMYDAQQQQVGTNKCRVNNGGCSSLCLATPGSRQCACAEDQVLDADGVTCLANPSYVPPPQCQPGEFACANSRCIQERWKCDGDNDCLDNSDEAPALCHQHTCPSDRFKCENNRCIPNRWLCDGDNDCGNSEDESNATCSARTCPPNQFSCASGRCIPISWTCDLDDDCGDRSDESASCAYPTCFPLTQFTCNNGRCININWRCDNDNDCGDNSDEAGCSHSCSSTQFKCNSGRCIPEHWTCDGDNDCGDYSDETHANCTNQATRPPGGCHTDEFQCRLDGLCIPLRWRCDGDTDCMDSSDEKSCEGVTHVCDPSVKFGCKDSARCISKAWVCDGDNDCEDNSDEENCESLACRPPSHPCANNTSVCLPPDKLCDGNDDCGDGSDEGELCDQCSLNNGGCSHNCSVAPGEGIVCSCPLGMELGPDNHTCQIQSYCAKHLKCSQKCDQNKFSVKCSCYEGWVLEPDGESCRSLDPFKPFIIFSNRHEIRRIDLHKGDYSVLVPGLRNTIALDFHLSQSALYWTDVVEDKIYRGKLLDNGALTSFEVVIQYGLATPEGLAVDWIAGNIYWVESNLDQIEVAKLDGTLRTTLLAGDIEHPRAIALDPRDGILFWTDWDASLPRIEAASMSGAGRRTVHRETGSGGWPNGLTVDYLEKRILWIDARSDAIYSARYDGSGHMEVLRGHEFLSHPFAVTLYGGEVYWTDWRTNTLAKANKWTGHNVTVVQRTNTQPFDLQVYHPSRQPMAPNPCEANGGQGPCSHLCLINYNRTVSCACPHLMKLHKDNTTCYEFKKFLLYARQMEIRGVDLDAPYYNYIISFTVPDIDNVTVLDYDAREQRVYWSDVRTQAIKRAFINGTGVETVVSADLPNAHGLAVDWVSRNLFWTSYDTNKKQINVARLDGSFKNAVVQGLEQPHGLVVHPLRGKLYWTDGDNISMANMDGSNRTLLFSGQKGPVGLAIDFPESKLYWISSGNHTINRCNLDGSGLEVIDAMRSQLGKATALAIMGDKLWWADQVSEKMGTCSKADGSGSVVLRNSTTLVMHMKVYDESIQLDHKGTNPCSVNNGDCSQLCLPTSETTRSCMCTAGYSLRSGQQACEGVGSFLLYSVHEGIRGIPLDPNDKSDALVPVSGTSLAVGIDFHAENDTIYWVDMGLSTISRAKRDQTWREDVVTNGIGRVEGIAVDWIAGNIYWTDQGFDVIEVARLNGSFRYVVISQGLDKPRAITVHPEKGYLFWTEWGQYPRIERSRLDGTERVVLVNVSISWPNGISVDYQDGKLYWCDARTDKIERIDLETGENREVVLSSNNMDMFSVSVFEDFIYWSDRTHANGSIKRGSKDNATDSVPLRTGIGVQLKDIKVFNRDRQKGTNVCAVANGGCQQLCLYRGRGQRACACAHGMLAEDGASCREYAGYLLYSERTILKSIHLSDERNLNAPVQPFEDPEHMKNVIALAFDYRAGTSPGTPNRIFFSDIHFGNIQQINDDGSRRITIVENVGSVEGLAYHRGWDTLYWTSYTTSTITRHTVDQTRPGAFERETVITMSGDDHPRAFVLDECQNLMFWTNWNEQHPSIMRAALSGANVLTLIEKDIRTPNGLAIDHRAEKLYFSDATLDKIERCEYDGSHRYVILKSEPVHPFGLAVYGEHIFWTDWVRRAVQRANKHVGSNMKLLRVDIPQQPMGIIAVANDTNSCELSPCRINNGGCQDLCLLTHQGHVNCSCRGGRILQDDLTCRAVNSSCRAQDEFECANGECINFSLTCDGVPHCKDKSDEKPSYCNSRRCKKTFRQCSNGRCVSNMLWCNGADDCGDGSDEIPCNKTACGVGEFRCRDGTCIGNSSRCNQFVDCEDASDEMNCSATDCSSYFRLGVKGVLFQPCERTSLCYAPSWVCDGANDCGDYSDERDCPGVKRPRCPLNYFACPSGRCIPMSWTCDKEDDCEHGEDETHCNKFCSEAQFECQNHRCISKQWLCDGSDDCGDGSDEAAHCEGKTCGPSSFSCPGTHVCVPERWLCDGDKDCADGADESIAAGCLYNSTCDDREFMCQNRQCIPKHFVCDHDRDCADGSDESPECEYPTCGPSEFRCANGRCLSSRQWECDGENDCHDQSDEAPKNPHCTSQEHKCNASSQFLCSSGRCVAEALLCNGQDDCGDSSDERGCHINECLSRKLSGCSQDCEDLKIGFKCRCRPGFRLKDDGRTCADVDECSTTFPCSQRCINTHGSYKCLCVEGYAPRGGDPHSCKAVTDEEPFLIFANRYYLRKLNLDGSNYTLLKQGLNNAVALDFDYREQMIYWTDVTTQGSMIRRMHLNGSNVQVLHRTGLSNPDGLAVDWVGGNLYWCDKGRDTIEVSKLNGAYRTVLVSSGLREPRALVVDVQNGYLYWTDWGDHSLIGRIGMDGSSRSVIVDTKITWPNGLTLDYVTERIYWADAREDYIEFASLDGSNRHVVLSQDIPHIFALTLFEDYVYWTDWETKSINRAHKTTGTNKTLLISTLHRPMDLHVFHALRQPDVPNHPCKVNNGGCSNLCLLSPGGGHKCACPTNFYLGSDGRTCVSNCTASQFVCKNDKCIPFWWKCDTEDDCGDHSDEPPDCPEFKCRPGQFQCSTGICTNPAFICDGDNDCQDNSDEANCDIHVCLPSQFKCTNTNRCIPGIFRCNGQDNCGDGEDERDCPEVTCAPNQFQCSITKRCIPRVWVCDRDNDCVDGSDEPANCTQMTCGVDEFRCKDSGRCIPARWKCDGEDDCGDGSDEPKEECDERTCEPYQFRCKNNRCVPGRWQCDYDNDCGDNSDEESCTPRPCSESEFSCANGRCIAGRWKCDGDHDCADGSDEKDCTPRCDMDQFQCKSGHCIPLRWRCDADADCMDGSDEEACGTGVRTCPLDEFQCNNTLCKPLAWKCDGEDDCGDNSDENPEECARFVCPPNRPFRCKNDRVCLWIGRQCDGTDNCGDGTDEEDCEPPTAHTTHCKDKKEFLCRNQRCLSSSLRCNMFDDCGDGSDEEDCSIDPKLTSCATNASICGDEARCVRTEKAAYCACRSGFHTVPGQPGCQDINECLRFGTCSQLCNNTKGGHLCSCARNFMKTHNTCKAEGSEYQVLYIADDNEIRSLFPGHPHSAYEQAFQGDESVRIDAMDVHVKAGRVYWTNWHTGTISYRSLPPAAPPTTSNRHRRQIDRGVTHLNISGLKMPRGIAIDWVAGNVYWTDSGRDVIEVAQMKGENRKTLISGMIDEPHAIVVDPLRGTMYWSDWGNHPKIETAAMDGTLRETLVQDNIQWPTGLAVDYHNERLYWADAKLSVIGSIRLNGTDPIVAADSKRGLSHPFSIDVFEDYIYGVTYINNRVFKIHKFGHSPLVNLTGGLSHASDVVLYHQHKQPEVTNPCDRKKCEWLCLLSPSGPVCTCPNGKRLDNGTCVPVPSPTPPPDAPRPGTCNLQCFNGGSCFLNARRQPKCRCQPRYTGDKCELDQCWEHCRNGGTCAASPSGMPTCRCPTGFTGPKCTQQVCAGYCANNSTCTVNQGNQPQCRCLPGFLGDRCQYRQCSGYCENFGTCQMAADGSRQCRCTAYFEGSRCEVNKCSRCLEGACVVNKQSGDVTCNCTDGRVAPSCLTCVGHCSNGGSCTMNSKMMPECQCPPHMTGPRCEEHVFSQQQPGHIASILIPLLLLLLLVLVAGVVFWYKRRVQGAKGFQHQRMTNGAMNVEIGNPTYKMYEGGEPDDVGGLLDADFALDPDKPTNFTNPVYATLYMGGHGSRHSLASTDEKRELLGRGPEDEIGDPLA

In experiment [1], “non-enzymatically active tPA (NE-tPA/S478A-tPA) (from UniProt P00750 36-562)” returned a Simulated outflow facility of HTM cells in ACOS, PA+NE-tPA (no inhibitor) (µl/min/mmHg/mm^2) of 0.55; a Simulated outflow facility of HTM cells in ACOS, PA+NE-tPA+MK-801+RAP (both inhibitors) (µl/min/mmHg/mm^2) of 0.33; a Simulated outflow facility of HTM cells in ACOS, PA+NE-tPA+RAP (inhibitor of LRP1) (µl/min/mmHg/mm^2) of 0.27. In experiment [2], this substance showed a Simulated outflow facility of HTM cells in ACOS, PA+NE-tPA (no inhibitor) (µl/min/mmHg/mm^2) of 0.55; a Simulated outflow facility of HTM cells in ACOS, PA+NE-tPA+MK-801 (inhibitor of NMDA receptor) (µl/min/mmHg/mm^2) of 0.29; a Simulated outflow facility of HTM cells in ACOS, PA+NE-tPA+MK-801+RAP (both inhibitors) (µl/min/mmHg/mm^2) of 0.33.
